Test results: patent US12440549B2, “Polyvalent immunogenicity composition for human papillomavirus” (SinoCellTech Ltd., priority 2019, dated 2025)

Experiment: Expression and solubility of L1 protein in insect cells (cell lysate vs supernatant, SDS-PAGE)
Type: physicochemical
Conditions: supernatant after centrifugation of lysate
Method: FIG. 4: Expression of C-terminal truncated HPV 16L1 (1-474). M: Marker; L: cell lysates; E-S: supernatant collected after centrifugation of the lysates.
High Five cells were infected with baculovirus containing the HPV6 L1: 33C recombinant gene obtained in Example 2 at a ratio of 1:200 (V/V), and the cell precipitate was collected by centrifugation at 1000 g±100 g at room temperature. The cells were broken up by sonication at low temperature for 3 min, centrifuged at >10,000 g for 10 min and the supernatant was collected for SDS-PAGE. Lane 1: Marker (The marker is a mixture of 7 purified proteins with molecular weights ranging from 14.4 kDa to 116 kDa, produced by Thermo Scientific); Lane 2: cell lysate; Lane 3: supernatant of the lysate collected by centrifugation.
The inventors attempted to truncate the C-terminus of HPV16 L1 by 31 amino acids and named it HPV16 L1 (1-474) (SEQ ID NO: 27).

Substance: HPV16 L1 (1-474): Comparative example: HPV16 L1 protein with the C-terminus truncated by 31 amino acids
- solubility of the expressed L1 protein: very poor solubility
- solubility of the expressed L1 protein (listed as HPV 16 L1 (1-474)): poor solubility
